Patent publication US20180327803A1
Each block holds one binder with its values, some of them ahead of it.

How the values were obtained:
[1] = molecular target: human IgG1 antibody (#I5154; Sigma-Aldrich) (human); experiment: SPR, single cycle kinetics, IgG1 chip
[2] = molecular target: human IgG3 antibody (#I5654; Sigma-Aldrich) (human); experiment: ELISA
[3] = molecular target: human IgG1 antibody (#I5154; Sigma-Aldrich) (human); experiment: ELISA
[4] = molecular target: human serum-derived IgG polyclonal antibody (#I4506; Sigma-Aldrich) (human); experiment: SPR, lysate, human IgG chip
[5] = molecular target: human serum-derived IgA polyclonal antibody (#I4036; Sigma-Aldrich) (human); experiment: ELISA
[6] = molecular target: human serum-derived IgG polyclonal antibody (#I4506; Sigma-Aldrich) (human); experiment: ELISA
[7] = molecular target: human IgG4 antibody (#I4639; Sigma-Aldrich) (human); experiment: ELISA
[8] = molecular target: human IgG2 antibody (#I5404; Sigma-Aldrich) (human); experiment: ELISA

Kd [1]: 11 nM | koff [1]: 0.00013 s⁻¹ | kon [1]: 11000 M⁻¹ s⁻¹
B1: R3-23 rabbit-derived single-chain antibody-His (scFv)
scFv: QSVKESEGRLVTPGTPLTLTCTVSGFSLSRYAVSWVRQAPGKGLEWIGIIGSGGSTSYATWARGRFTISKTSTTVDLKITSPTTEDTVTYFCGSYYDSHGYAYVSLWGPGTLVTVTSGGGGSGGGGSGGGGSELVLTQTPSPVSGAVGGTVTINCQASQSISTALAWYQQKPGQPPKLLIYSASTLASGVSSRFKGSGSGTGFTLTISDLECADAATYYCQSYYGSSSDNAFGGGTEVVIKRSHHHHHH

OD [2]: 3.05 | OD [3]: 3.12 | koff [4]: 0.000838 s⁻¹
B2: R2-16 (scFv, not shown: small tags and cut ends)
scFv: QSVKESGGRLVTPGTPLTLTCTVSGFSLSSYAMGWVRQAPGKGLEYIGIISSSGSTYYASWAKGRFTISKTSTTVDLKITSPTTEDTATYFCARYSGDNGGALNLWGPGTLVTVTSGGGGSGGGGSGGGGSELDLTQTAASVSEPVGGTVTISCQSSQHIRSYLAWYQQKPGQPPKLLISAASTLASGVSSRFKGSGSGTEFTLTISDLECADAATYYCQRYYDIRNYGNGFGGGTEVEITGS

OD [2]: 3.08 | OD [3]: 3.11 | OD [5]: 3.11 | koff [4]: 0.0008 s⁻¹
B3: R2-18 (scFv, not shown: small tags and cut ends)
scFv: QSLEESGGRLVTPGTPLTLTCTVSGIDLSSNAMTWVRQAPGEGLEWIGTISTGGSTYFASWAKGRFTISKTSTTVDLKITSPTTEDTATYFCATRYDSYGYAYNYWFGTLWGPGTLVTVTSGGGGSGGGGSGGGGSELVMTQTAASVSEPVGGTVTIKCQASQNINNELAWYQQKPGQRPKLLIYDASKLASGVPSRFSGSGSGTEFTLTISGMQCDDAATYYCQSTYYDGNYVYAFGGGTEVDVKGS

OD [2]: 3.11 | OD [3]: 3.14 | OD [6]: 3.05 | OD [7]: 3.17 | OD [8]: 3.08 | koff [4]: 0.000742 s⁻¹
B4: R3-58 (scFv, not shown: small tags and cut ends)
scFv: QQQLMESGGRLVTPGGSLTLTCTVSGIDLNSYAMGWVRQAPGKGLEYIGIIRNSGNTYYASWAKGRFTISKTSSTTVDLKMTSLTTEDTATYFCARYSGDNGGALNLWGPGTLVTVTSGGGGSGGGGSGGGGSELVMTQTAASVSGPVGGTVTIKCQASEFIRNYLAWYQQKPGQPPKLLIYTTSNLASGVPSRFSGSGSGTEYTLTISDLECADAATYYCQNYYDISTYGNAFGGGTEVVVIKGS

Kd [1]: 2.5 nM | koff [1]: 0.00032 s⁻¹ | kon [1]: 130000 M⁻¹ s⁻¹
B5: R2-16 rabbit-derived single-chain antibody-His (scFv)
scFv: QSVKESGGRLVTPGTPLTLTCTVSGFSLSSYAMGWVRQAPGKGLEYIGIISSSGSTYYASWAKGRFTISKTSTTVDLKITSPTTEDTATYFCARYSGDNGGALNLWGPGTLVTVTSGGGGSGGGGSGGGGSELDLTQTAASVSEPVGGTVTISCQSSQHIRSYLAWYQQKPGQPPKLLISAASTLASGVSSRFKGSGSGTEFTLTISDLECADAATYYCQRYYDIRNYGNGFGGGTEVEITGSHHHHHH

Kd [1]: 4.8 nM | koff [1]: 0.00012 s⁻¹ | kon [1]: 25000 M⁻¹ s⁻¹
B6: R2-18 rabbit-derived single-chain antibody-His (scFv)
scFv: QSLEESGGRLVTPGTPLTLTCTVSGIDLSSNAMTWVRQAPGEGLEWIGTISTGGSTYFASWAKGRFTISKTSTTVDLKITSPTTEDTATYFCATRYDSYGYAYNYWFGTLWGPGTLVTVTSGGGGSGGGGSGGGGSELVMTQTAASVSEPVGGTVTIKCQASQNINNELAWYQQKPGQRPKLLIYDASKLASGVPSRFSGSGSGTEFTLTISGMQCDDAATYYCQSTYYDGNYVYAFGGGTEVDVKGSHHHHHH

Kd [1]: 24 nM | koff [1]: 0.0017 s⁻¹ | kon [1]: 71000 M⁻¹ s⁻¹
B7: R1-7 rabbit-derived single-chain antibody-His (scFv)
scFv: QSLEESGGRLVTPGTPLTLTCTVSGIDLRRYAMGWVRQAPGKGLQWIGIIASGNTDYASWAKGRFTISATSTTVDLKITSPTTEDTATYFCARYSGDNGGTLNLWGPGTLVTVTSGGGGSGGGGSGGGGSELVMTQTAASVSEPVGGTVTIKCQASQSISSYLAWYQQKPGQPPKLLIYAASNLASGVSSRFKGSGSGTEFTLTISDLECADAATYYCQSYYSISSYGNTFGGGTEVEITGSHHHHHH

Kd [1]: 0.55 nM | koff [1]: 3.7e-05 s⁻¹ | kon [1]: 67000 M⁻¹ s⁻¹
B8: R3-75 rabbit-derived single-chain antibody-His (scFv)
scFv: QSVKESGGRLVTPGTPLTLTCTVSGIDLSSNAMSWVRQAPGEGLEWIGTISTVGKTYFASWAKGRFTISKTSTTVDLRITSPTTEDTATYFCATRYDSYGYAYNYWFGTLWGPGTLVTVTSGGGGSGGGGSGGGGSELDLTQTPPSVSGAVGGTVTIKCQASENINSELAWYQQKPGQRPKLLIYDASKLASGVPSRFSGSGSGTEYTLTISGMQCDDAATYYCQSTYYDGNYVYAFGGGTEVDVTRSHHHHHH

OD [2]: 3.14 | OD [3]: 3.1 | OD [6]: 3.1 | OD [7]: 3.16 | OD [8]: 3.04 | koff [4]: 0.000571 s⁻¹
B9: R3-26 (scFv, not shown: small tags and cut ends)
scFv: QEQLVESGGGLVKPGGTLTLTCTVSGIDLSSYAMSWVRQVPGKGLEWIGIIGSGGGTAYANWAKGRFTISKTSSTTVDLKMTSLTTEDTATYFCATDYGIYGYAYGHLWGPGTLVTVTSGGGGSGGGGSGGGGSELVMTQTASPVSAAVGGTVTIKCQASQSISTALAWYQQRPGQPPKLLIYDASTLASGVSSRFKGSGSGTEFTLTISDLECADAATYYCQTYFGSDTDNAFGEGTEVEITGS

Kd [1]: 40 nM | koff [1]: 0.0004 s⁻¹ | kon [1]: 9900 M⁻¹ s⁻¹
B10: R1-27 rabbit-derived single-chain antibody-His (scFv)
scFv: QQQLMESGGGLVTPGTPLTLTCTVSGIDLRRYAMGWVRQAPGKGLQWIGIIASGNTDYASWAKGRFTISATSTTVDLKITSSTTEDTATYFCARYSGDNGGTLNLWGPGTLATVTTGGGGSGGGGSGGGGSELVMTQTAASVSEPVGGTVTIKCQASEHIRNYLAWYQQKPGQPPKLLIYTTSNLASGVPSRFSGSGSGTEYTLTISDLECADAATYYCQNYYDISTYGNTFGGGTEVDVKGSHHHHHH

OD [3]: 3.12 | koff [4]: 0.00175 s⁻¹
B11: R1-7 (scFv, not shown: small tags and cut ends)
scFv: QSLEESGGRLVTPGTPLTLTCTVSGIDLRRYAMGWVRQAPGKGLQWIGIIASGNTDYASWAKGRFTISATSTTVDLKITSPTTEDTATYFCARYSGDNGGTLNLWGPGTLVTVTSGGGGSGGGGSGGGGSELVMTQTAASVSEPVGGTVTIKCQASQSISSYLAWYQQKPGQPPKLLIYAASNLASGVSSRFKGSGSGTEFTLTISDLECADAATYYCQSYYSISSYGNTFGGGTEVEITGS

OD [2]: 3.08 | OD [3]: 3.07 | koff [4]: 0.000859 s⁻¹
B12: R1-27 (scFv, not shown: small tags and cut ends)
scFv: QQQLMESGGGLVTPGTPLTLTCTVSGIDLRRYAMGWVRQAPGKGLQWIGIIASGNTDYASWAKGRFTISATSTTVDLKITSSTTEDTATYFCARYSGDNGGTLNLWGPGTLATVTTGGGGSGGGGSGGGGSELVMTQTAASVSEPVGGTVTIKCQASEHIRNYLAWYQQKPGQPPKLLIYTTSNLASGVPSRFSGSGSGTEYTLTISDLECADAATYYCQNYYDISTYGNTFGGGTEVDVKGS

OD [2]: 3.02 | OD [3]: 3.06 | OD [6]: 3.04 | OD [7]: 3.06 | OD [8]: 3.06 | koff [4]: 0.000408 s⁻¹
B13: R3-23 (scFv, not shown: small tags and cut ends)
scFv: QSVKESEGRLVTPGTPLTLTCTVSGFSLSRYAVSWVRQAPGKGLEWIGIIGSGGSTSYATWARGRFTISKTSTTVDLKITSPTTEDTVTYFCGSYYDSHGYAYVSLWGPGTLVTVTSGGGGSGGGGSGGGGSELVLTQTPSPVSGAVGGTVTINCQASQSISTALAWYQQKPGQPPKLLIYSASTLASGVSSRFKGSGSGTGFTLTISDLECADAATYYCQSYYGSSSDNAFGGGTEVVIKRS
